Assay [1] deals with T1, amyloid β (Aβ)-derived diffusible ligands (ADDLs) (UniProt P05067 672-713).
T1 construct: domain: Aβ1-42; Soluble oligomers of Aβ1-42, with the number of chains per oligomer not fixed; They were prepared from HFIP film in DMSO/F12 and enriched on a 50 kDa filter; The result sentences say 'ADDLs'; also called ADDL oligomers; soluble …
In words: ELISA, plate coated with ADDLs (50 pmol/well), anti-human IgG-alkaline phosphatase, luminescence; antibody kept one month at 4 °C. On the procedure: (§1) The codon AAT for N was mutated to AGT for S in 19.3S33 (SEQ ID NO: 55), ACT for T in 19.3T33 (SEQ ID NO: 56), GAA for E in 19.3E33 (SEQ ID NO: 67), or GAT for D in 19.3D33 (SEQ ID NO: 68), and the new condons in that position were confirmed by DNA sequencing. […] The expression and purification methods were described above in this example.
(§2) Determination of EC50. High protein binding plates (Costar, Corning, Lowell, Mass.), were coated with target ligand in PBS overnight at 4° C. The concentration of coating protein was 100 pmol/well for Aβ40 (American Peptide, Sunnyvale, Calif.) and 50 pmol/well for ADDLs. ADDLs were generated as described in Example 1B. Next day, plates were washed five times with PBS+0.05% Tween-20 (Sigma Aldrich, St. Louis, Mo.) and blocked overnight with Casein blocking buffer (ThermoScientific, Waltham, Mass.) and 0.05% Tween-20. […] After 2 hours at room temperature incubation, the plates were washed and alkaline phosphatase conjugated anti-human IgG (ThermoScientific, Waltham, Mass.) was added at 0.08 μg/ml. After 45 minutes at room temperature incubation, the plates were washed and Tropix® CDP®-Star chemiluminescent substrate (Life Technologies™, Carlsbad, Calif.) was added. Luminescence was detected after 30 minutes on an EnVision® microplate reader (PerkinElmer, Waltham, Mass.).
On the technique in general: In an ELISA, binding on a coated surface is turned into a signal by an enzyme label.

Assay [2] addresses T1, amyloid β (Aβ)-derived diffusible …. Description: ELISA, plate coated with ADDLs (50 pmol/well), anti-human IgG-alkaline phosphatase, luminescence; antibody kept one month at 25 °C. On the procedure:
as §1, §2

For assay [3] the target is unchanged. In words: ELISA, plate coated with ADDLs (50 pmol/well), anti-human IgG-alkaline phosphatase, luminescence; antibody not stored (0 timepoint). The protocol:
as §2, with “Mass.). Curve fits were completed using GraphPad Prism (GraphPad Software, Inc., San Diego, Calif.) software.” for “Mass.).”

For assay [4] the target is unchanged. In words: ELISA, plate coated with ADDLs (50 pmol/well), anti-human IgG-alkaline phosphatase, luminescence; antibody kept one month at 40 °C. On the procedure:
as §1, §2

For assay [5] the target is unchanged. Description: phage/Fab ELISA on ADDLs, anti-M13-HRP detection. On the procedure:
Biotinylated ADDLs (bADDLs) or monomer Aβ1-40 or Aβ1-42 was added to a high-capacity streptavidin-coated plate (Sigma-Aldrich, St. Louis, Mo.) with 100 μL per well of coating reagent in PBS at 1 μM and incubated for two hours at room temperature. The plates were washed in PBS with 0.05% Tween (six times) and then PBS alone (three times) prior to blocking wells with 5% non-fat dry milk in PBS for one hour at room temperature. The wells were then washed and a serial dilution of antibody samples added to the plates and allowed to bind for two hours at room temperature. After incubation and washing, the antibody binding was detected with a goat anti-human IgG-Fc secondary antibody conjugated to horse radish peroxidase (HRP) (1:1,000; one hour at room temperature). The HRP label was visualized with tetramethyl benzidine (Virolabs, Chantilly, Va.) as a substrate and read at 450 nm on a microplate reader.
After each round of panning, single colonies were randomly picked to produce phage in 96-well plates. The procedures for phage preparation in 96-well plate were similar to that described above except no phage precipitation step was used. Culture plates containing colonies growing in 120 μL of 2×TY medium with 100 μg/ml ampicillin and 0.1% glucose were incubated overnight in a HiGro® shaker (Genomic Solutions, Ann Arbor, Mich.) at 30° C. with shaking at 450 rpm. The phage supernatants (about 100 μL) were directly used for analysis in the ADDL binding ELISA described above. One difference is that the binding of phage to ADDLs was detected with an anti-M13-antibody conjugated to HRP (Amersham Bioscience, GE Healthcare, Waukesha, Wis.).

For assay [6] the target is unchanged. Description: Biacore (SPR). In general terms: In SPR one partner is held on a chip, and binding of the other changes the refractive index at the surface.
The target is the same in assay [7]. Description: Biacore (SPR); affinity for Aβ1-40 monomer over affinity for ADDLs.
For assay [8] the target is unchanged. Description: KinExA; constant for Aβ1-40 monomer over constant for ADDLs. Background: In KinExA the mixture passes briefly over coated beads that capture the unbound partner.
For assay [9] the target is unchanged. In words: KinExA, equilibrium constant in solution.
For assay [10] the target is unchanged. Description: ELISA, plate coated with ADDLs (50 pmol/well), 12 point antibody titration, anti-human IgG-alkaline phosphatase, luminescence. The protocol: as §2, with “Mass.). Curve fits were completed using GraphPad Prism (GraphPad Software, Inc., San Diego, Calif.) software.” for “Mass.).”

Where a chain is given by its changes, count along the chain named.

Usually EC50 (read off the curve) stands for the midpoint of the concentration-response curve. A lower EC50 (read off the curve) goes with an effect from little substance. A word on the Kd: it is the free concentration of one partner at which half of the binding sites on the other are occupied at equilibrium, for simple one-to-one binding. Low readings indicate higher affinity, high ones lower affinity.

T1 sequence (P05067 672-713 limits assumed): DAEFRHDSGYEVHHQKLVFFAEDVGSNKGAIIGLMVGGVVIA

B1: anti-ADDL antibody 19.3 (antibody, human IgG2, kappa, V domains shown)
VH: EVQLVESGGGLVQPGGSLRLSCAASGFTFSSFGMHWVRQAPGKGLEWVAYISRGSSTIYYADTVKGRFTISRDNAKNSLYLQMNSLRAEDTAVYYCARGITTALDYWGQGTLVTVSS
VL: DVVMTQSPLSLPVTPGEPASISCRSSQSIVHSNGNTYLEWYLQKPGQSPQLLIYKASNRFSGVPDRFSGSGSGTDFTLKISRVEAEDVGVYYCFQGSRLGPSFGQGTKLEIKR
notes: The same paragraph also says all VH were cloned into an IgG1 expression vector; copies: 2 + 2
Turning to B1, the “EC50 (read off the curve)” value in assay [1] is about 2 nM; in [2], about 2 nM; in assay [3] it was about 1 nM; in assay [4], about 6 nM.

B2: Fab clone 14.2 (phage-displayed) (Fab, V domains shown)
VH: B1 VH
VL: DVVMTQSPLSLPVTPGEPASISCRSSQSIVHSNGNTYLEWYLQKPGQSPQLLIYKASNRFSGVPDRFSGSGSGTDFTLKISRVEAEDVGVYYCFQGSRVPPGFGQGTKLEIK
notes: VH is deduced from the parental VH being kept in the library
For B2, the binding result in [5] is recorded as “binds”.

B3: humanized anti-ADDL antibody h3B3 (antibody, V domains shown)
VH: B1 VH
VL: B2 VL with R98H, G102T
notes: Parental antibody; also called humanized 3B3; h3B3 (parental)
As to B3, the dissociation constant Kd is 10 nM in assay [6] and 3.3 nM in [9]. Further, the “Ratio (Aβ monomer/ADDL)” value in assay [7] was determined as 10; in assay [8], 13.6.

B4: Fab clone 13.1 (phage-displayed) (Fab, V domains shown)
VH: B1 VH
VL: B2 VL with R98K, V99A, P100H, G102S
notes: as for B2
Take B4: in [5], the binding result was “binds”.

B5: Fab clone 11.4 (phage-displayed) (Fab, V domains shown)
VH: B1 VH
VL: B2 VL with P101V, G102R
notes: as for B2
For B5, in assay [5], the binding result was “binds”.

B6: anti-ADDL antibody 19.3S33 (antibody, V domains shown)
VH: B1 VH
VL: B1 VL with N33S
With B6, the binding result in assay [10] is listed as “binds”.

B7: Fab clone 9.2 (phage-displayed) (Fab, V domains shown)
VH: B1 VH
VL: B2 VL with V99A, G102F
notes: as for B2
Regarding B7, the binding result in assay [5] is listed as “binds”.

B8: anti-ADDL antibody 19.3T33 (antibody, V domains shown)
VH: B1 VH
VL: B1 VL with N33T
With B8, the binding result in assay [10] was “binds”.

B9: Fab clone 7.2 (phage-displayed) (Fab, V domains shown)
VH: B1 VH
VL: B2 VL with R98Y, V99A
notes: as for B2
As for B9, the binding result in assay [5] is given as “binds”.

The record behind these values is US20130115227A1 (Merck Sharp & Dohme, published 2013).
